Molecular target: recombinant influenza HA3-protein (from H3N2, Wyoming, March 2003, Sino Biological Inc.) (influenza H3N2, Wyoming, March 2003)
Test: SPR imaging (IBIS MX96), antibody captured on anti-human-IgG chip, HA3 injected at 1 µg/ml, global 1:1 fit

B1: AT10-004 (antibody, V domains shown)
VH: RASQSVSRYLA
VL: RASQSVSRYLA
Q: What does the source list for B1?
A: Kd: 0.07 nM; koff: 1e-06 s⁻¹; kon: 14000 M⁻¹ s⁻¹

— patent US20130331552A1
